Laboratory results from IntAct's records for PubMed 21685908.

B1: Rab5 GDP/GTP exchange factor (Homo sapiens), Q9UJ41 (parent)
chain: MSLKSERRGIHVDQSDLLCKKGCGYYGNPAWQGFCSKCWREEYHKARQKQIQEDWELAERLQREEEEAFASSQSSQGAQSLTFSKFEEKKTNEKTRKVTTVKKFFSASSRVGSKKEIQEAKAPSPSINRQTSIETDRVSKEFIEFLKTFHKTGQEIYKQTKLFLEGMHYKRDLSIEEQSECAQDFYHNVAERMQTRGKVPPERVEKIMDQIEKYIMTRLYKYVFCPETTDDEKKDLAIQKRIRALRWVTPQMLCVPVNEDIPEVSDMVVKAITDIIEMDSKRVPRDKLACITKCSKHIFNAIKITKNEPASADDFLPTLIYIVLKGNPPRLQSNIQYITRFCNPSRLMTGEDGYYFTNLCCAVAFIEKLDAQSLNLSQEDFDRYMSGQTSPRKQEAESWSPDACLGVKQMYKNLDLLSQLNERQERIMNEAKKLEKDLIDWTDGIAREVQDIVEKYPLEIKPPNQPLAAIDSENVENDKLPPPLQPQVYAG

Variants of: B1
Conditions: with eea1_human EEA1, Q15075
Sequence of eea1_human EEA1, Q15075 (Q15075 whole entry): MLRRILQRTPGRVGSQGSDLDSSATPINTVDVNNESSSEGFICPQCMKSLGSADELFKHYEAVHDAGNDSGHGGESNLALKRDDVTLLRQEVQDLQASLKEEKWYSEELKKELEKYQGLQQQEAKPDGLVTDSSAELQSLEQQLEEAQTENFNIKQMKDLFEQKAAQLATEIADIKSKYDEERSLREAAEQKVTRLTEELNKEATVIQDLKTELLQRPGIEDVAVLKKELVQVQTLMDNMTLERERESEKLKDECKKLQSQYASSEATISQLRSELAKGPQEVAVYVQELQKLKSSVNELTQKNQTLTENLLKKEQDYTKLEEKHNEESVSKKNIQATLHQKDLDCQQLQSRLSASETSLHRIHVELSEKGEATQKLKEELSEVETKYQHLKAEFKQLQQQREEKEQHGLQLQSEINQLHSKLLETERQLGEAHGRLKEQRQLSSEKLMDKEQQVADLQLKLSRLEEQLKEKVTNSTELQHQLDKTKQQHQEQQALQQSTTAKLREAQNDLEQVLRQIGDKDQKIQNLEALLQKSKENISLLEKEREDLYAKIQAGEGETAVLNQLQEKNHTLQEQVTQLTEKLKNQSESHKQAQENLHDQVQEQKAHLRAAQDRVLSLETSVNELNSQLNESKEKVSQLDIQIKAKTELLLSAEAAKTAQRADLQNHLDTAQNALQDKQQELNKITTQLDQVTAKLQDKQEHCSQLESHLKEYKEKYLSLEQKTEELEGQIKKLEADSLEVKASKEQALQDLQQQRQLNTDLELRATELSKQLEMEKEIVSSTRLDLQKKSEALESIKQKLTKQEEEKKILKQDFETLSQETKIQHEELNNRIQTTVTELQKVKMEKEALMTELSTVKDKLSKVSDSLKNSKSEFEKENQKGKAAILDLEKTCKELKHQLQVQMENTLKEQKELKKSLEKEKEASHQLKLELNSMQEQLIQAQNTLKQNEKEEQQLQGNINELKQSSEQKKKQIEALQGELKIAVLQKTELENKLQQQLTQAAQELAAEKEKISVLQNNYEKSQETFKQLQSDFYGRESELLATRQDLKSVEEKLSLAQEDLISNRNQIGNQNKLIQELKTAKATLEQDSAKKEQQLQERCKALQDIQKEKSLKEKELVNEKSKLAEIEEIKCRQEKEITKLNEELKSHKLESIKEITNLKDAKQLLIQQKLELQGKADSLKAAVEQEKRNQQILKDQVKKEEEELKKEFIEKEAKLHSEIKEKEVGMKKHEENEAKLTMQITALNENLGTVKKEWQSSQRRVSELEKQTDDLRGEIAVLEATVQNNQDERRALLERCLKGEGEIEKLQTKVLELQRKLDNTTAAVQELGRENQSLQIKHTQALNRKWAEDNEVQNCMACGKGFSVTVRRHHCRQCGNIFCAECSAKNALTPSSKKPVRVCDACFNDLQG

| effect of a mutation on the interaction | Variant |
| --- | --- |
| increasing interaction | Q79L |
